According to patent US20240010735A1 (EISAI R AND D MANAGEMENT, published 2024):

Columns and labels:
Assay in all cases: ELISA: Fc-His proteins (1 nM) captured on anti-6-His antibody, antibody A 10 µg/mL with human IgG 100 µg/mL, HRP anti-mouse IgG, OD450 as % of mouse EphA4-Fc-His
[1] = target: T1, mouse EphA1 extracellular region-Fc-His protein (mouse; human, UniProt Q60750 27-548)
T1 construct: extracellular domain; not shown: Fc region of human IgG1; histidine tag
T1 sequence (looked up): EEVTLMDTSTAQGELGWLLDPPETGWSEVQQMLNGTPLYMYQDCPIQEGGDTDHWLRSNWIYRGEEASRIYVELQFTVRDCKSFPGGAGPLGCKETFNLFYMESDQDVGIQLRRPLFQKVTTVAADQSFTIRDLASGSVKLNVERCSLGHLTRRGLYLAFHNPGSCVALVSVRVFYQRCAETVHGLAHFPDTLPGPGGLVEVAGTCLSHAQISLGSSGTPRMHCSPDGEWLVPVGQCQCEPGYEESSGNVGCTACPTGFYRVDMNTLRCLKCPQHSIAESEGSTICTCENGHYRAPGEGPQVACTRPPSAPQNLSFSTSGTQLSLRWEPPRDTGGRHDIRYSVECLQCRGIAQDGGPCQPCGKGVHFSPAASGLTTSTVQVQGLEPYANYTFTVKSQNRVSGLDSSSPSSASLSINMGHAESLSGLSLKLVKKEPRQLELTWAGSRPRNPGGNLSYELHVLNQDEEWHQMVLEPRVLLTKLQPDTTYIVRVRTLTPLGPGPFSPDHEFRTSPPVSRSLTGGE
Procedure: (§1) Rabbit anti-6-His antibodies (Bethyl Laboratories) were coated onto the wells of a 96-well plate (Nunc). After incubating at 4° C. overnight, the wells were blocked at room temperature for 1 hour by 1% Block Ace (DS Pharma Biomedical). After washing 3 times with 0.05% Tween 20/PBS (Thermo […]), each Eph receptor of mouse extracellular region-Fc-His protein (final concentration 1 nM) was seeded into each well, and incubated at room temperature for 1 hour. After washing 3 times, human IgG solution (100 μg/mL, Sigma) and antibody A (10 μg/mL) were supplemented to the wells, and incubated at room temperature for 1 hour. Horseradish peroxidase-labeled donkey anti-mouse IgG antibody (Jackson ImmunoResearch Laboratories) was added, and incubated at room temperature for 1 hour. After washing 3 times, TMBZ (3,3′,5,5′-tetramethylbenzidine, Sigma) solution was added to the wells, and upon confirmation of modest coloring, an equal amount of quenching solution (1 N H₂SO₄, Wako Pure Chemicals) was added to the wells, and absorbance at 450 nm was read by a microplate reader (PerkinElmer).

[2] = target: T2, mouse EphA3 extracellular region-Fc-His protein (mouse; human, UniProt P29319 21-540)
T2 construct: extracellular domain; not shown: Fc region of human IgG1; histidine tag
T2 sequence (looked up): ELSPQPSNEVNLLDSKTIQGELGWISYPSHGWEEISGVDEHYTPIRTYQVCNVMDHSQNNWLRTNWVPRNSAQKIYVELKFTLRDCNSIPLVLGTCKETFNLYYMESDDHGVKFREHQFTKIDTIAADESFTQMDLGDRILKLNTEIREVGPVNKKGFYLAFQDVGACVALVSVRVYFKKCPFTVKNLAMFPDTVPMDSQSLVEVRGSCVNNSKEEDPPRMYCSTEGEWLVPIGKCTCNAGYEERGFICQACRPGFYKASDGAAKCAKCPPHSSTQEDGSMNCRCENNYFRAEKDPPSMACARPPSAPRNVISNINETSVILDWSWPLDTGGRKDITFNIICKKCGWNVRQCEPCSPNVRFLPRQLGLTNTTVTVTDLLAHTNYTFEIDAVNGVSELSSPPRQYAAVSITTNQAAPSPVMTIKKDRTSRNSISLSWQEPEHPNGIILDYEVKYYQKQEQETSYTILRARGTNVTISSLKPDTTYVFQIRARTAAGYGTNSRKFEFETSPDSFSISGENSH
Procedure: as §1

[3] = target: T3, mouse EphB6 extracellular region-Fc-His protein (mouse; human, UniProt O08644 33-591)
T3 construct: extracellular domain; not shown: Fc region of human IgG1; histidine tag
T3 sequence (looked up): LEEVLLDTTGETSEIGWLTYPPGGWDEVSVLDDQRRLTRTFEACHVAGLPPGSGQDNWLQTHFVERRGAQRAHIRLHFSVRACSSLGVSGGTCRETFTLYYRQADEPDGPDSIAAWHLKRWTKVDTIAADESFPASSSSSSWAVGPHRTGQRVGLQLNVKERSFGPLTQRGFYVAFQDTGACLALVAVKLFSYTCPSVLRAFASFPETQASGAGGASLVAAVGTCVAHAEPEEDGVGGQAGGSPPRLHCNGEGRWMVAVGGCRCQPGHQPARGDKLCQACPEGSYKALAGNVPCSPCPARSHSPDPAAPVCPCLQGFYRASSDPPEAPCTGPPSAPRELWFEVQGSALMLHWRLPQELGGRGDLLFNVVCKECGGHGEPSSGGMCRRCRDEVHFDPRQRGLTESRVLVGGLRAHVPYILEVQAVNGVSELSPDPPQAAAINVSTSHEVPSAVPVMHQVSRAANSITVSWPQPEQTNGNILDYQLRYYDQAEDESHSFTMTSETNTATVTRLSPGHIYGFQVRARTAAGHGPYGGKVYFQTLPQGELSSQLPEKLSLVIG
Procedure: as §1

Measured: binding result

B1: mouse anti-EphA4 monoclonal antibody (antibody A) (antibody, mouse IgG1, kappa, V domains shown)
VH: QVQLKQSGPSLVQPSQSLSITCTVSGFSLTRYGVHWVRQSPGKGLEWLGVIWRGGSTDYNAAFMSRLSITKDNSKSQVFFKMNSLQADDTAIYYCAKESLFGVYYDYGYYSMDYWGQGTSVTVSS
VL: DIQMTQSPSSLSASLGERVSLTCRASQEISGYLSWLQQKPDGTIKRLIYAASTLDSGVPKRFSGSRSGSDYSLTISSLESEDFADYYCLQYASYPLTFGAGTKLELKR
notes: purified from hybridoma supernatant
no binding (tested: 10 µg/mL): [1] | [2] | [3]
